According to US20210388087A1 (Chugai, published 2021):
Where a chain is given by its changes, count along the chain named. Names and notes keep the numbering of the source. Blank lines part the entries; values can stand above or below the binder they belong to.

Target: T1, CD3 epsilon homodimer protein (UniProt P07766 23-126)
T1 construct: immobilized on Sensor chip CM4 by amine coupling; also called CD3 (CD3 epsilon)
Test: SPR (Biacore T200), CD3 epsilon homodimer on CM4 chip, one-arm antibody as analyte, 25 C;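 also: homodimer attached to the sensor surface via amine coupling, HBS-EP+ used as running buffer during binding runs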

T1 sequence (P07766 23-126): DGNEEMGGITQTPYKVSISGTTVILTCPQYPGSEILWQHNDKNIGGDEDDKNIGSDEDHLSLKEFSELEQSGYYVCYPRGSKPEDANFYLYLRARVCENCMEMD

B1: CE115HA000 R19T one-arm antibody (antibody, human IgG1, kappa, L234A L235A, N297A, name in Kabat numbering)
heavy: QVQLVESGGGVVQPGRSLTLSCAASGFTFSNAWMHWVRQAPGKGLEWVAQIKAKSNNYATYYAESVKGRFTISRDDSKNSLYLQMNSLKTEDTAVYYCRYVHYGAYYGVDAWGQGTTVTVSSASTKGPSVFPLAPSSKSTSGGTAALGCLVKDYFPEPVTVSWNSGALTSGVHTFPAVLQSSGLYSLSSVVTVPSSSLGTQTYICNVNHKPSNTKVDKKVEPKSCDKTHTCPPCPAPEAAGGPSVFLFPPKPKDTLMISRTPEVTCVVVDVSHEDPEVKFNWYVDGVEVHNAKTKPREEQYASTYRVVSVLTVLHQDWLNGKEYKCKVSNKALPAPIEKTISKAKGQPREPQVYTLPPSRCELTKNQVSLSCAVKGFYPSDIAVEWESNGQPENNYKTTPPVLDSDGSFFLVSKLTVDKSRWQQGNVFSCSVMHEALHNHYTQKSLSLSPDYKDDDDK
chain: EPKSSDKTHTCPPCPAPELLGGPSVFLFPPKPKDTLMISRTPEVTCVVVDVSHEDPEVKFNWYVDGVEVHNAKTKPREEQYNSTYRVVSVLTVLHQDWLNGKEYKCKVSNKALPAPIEKTISKAKGQPREPQVCTLPPSRDELTKNQVSLWCLVKGFYPSDIAVEWESNGQPENNYKTTPPVLDSDGSFFLYSKLTVDKSRWQQGNVFSCSVMHEALHNRYTQKSLSLSP
light: DIVMTQSPLSLPVTPGEPASISCRSSQSLVHSNRNTYLHWYQQKPGQAPRLLIYKVSNRFSGVPDRFSGSGSGTDFTLKISRVEAEDVGVYYCGQGTQVPYTFGQGTKLEIKRTVAAPSVFIFPPSDEQLKSGTASVVCLLNNFYPREAKVQWKVDNALQSGNSQESVTEQDSKDSTYSLSSTLTLSKADYEKHKVYACEVTHQGLSSPVTKSFNRGEC
ratio of amounts bound (altered form / CE115HA000): 0.8

B3: CE115HA000 S52cD one-arm antibody (antibody, human IgG1, kappa, L234A L235A, N297A, name in Kabat numbering)
heavy: B1 heavy with T19R, S55D
chain: B1 chain
light: B1 light
ratio of amounts bound (altered form / CE115HA000): 0.6

B11: CE115HA000 S52cL one-arm antibody (antibody, human IgG1, kappa, L234A L235A, N297A, name in Kabat numbering)
heavy: B1 heavy with T19R, S55L
chain: B1 chain
light: B1 light
ratio of amounts bound (altered form / CE115HA000): 0.98

B12: CE115HA000 S30D one-arm antibody (antibody, human IgG1, kappa, L234A L235A, N297A, name in Kabat numbering)
heavy: B1 heavy with T19R, S30D
chain: B1 chain
light: B1 light
ratio of amounts bound (altered form / CE115HA000): 0.86

B13: CE115HA000 S62E one-arm antibody (antibody, human IgG1, kappa, L234A L235A, N297A, name in Kabat numbering)
heavy: B1 heavy with T19R, S65E
chain: B1 chain
light: B1 light
ratio of amounts bound (altered form / CE115HA000): 0.92

B14: CE115HA000 S52cF one-arm antibody (antibody, human IgG1, kappa, L234A L235A, N297A, name in Kabat numbering)
heavy: B1 heavy with T19R, S55F
chain: B1 chain
light: B1 light
ratio of amounts bound (altered form / CE115HA000): 1.13

B15: CE115HA000 S52cK one-arm antibody (antibody, human IgG1, kappa, L234A L235A, N297A, name in Kabat numbering)
heavy: B1 heavy with T19R, S55K
chain: B1 chain
light: B1 light
ratio of amounts bound (altered form / CE115HA000): 1.19

B21: CE115HA000 S52cV one-arm antibody (antibody, human IgG1, kappa, L234A L235A, N297A, name in Kabat numbering)
heavy: B1 heavy with T19R, S55V
chain: B1 chain
light: B1 light
ratio of amounts bound (altered form / CE115HA000): 0.93

B22: CE115HA000 S52cY one-arm antibody (antibody, human IgG1, kappa, L234A L235A, N297A, name in Kabat numbering)
heavy: B1 heavy with T19R, S55Y
chain: B1 chain
light: B1 light
ratio of amounts bound (altered form / CE115HA000): 1.11

B23: CE115HA000 S30G one-arm antibody (antibody, human IgG1, kappa, L234A L235A, N297A, name in Kabat numbering)
heavy: B1 heavy with T19R, S30G
chain: B1 chain
light: B1 light
ratio of amounts bound (altered form / CE115HA000): 1.01

B24: CE115HA000 S62D one-arm antibody (antibody, human IgG1, kappa, L234A L235A, N297A, name in Kabat numbering)
heavy: B1 heavy with T19R, S65D
chain: B1 chain
light: B1 light
ratio of amounts bound (altered form / CE115HA000): 0.92

B25: CE115HA000 S52cQ one-arm antibody (antibody, human IgG1, kappa, L234A L235A, N297A, name in Kabat numbering)
heavy: B1 heavy with T19R, S55Q
chain: B1 chain
light: B1 light
ratio of amounts bound (altered form / CE115HA000): 1.04

B29: CE115HA000 S52cA one-arm antibody (antibody, human IgG1, kappa, L234A L235A, N297A, name in Kabat numbering)
heavy: B1 heavy with T19R, S55A
chain: B1 chain
light: B1 light
ratio of amounts bound (altered form / CE115HA000): 0.96

B30: CE115HA000 S62K one-arm antibody (antibody, human IgG1, kappa, L234A L235A, N297A, name in Kabat numbering)
heavy: B1 heavy with T19R, S65K
chain: B1 chain
light: B1 light
ratio of amounts bound (altered form / CE115HA000): 1.19

B33: CE115HA000 S52cG one-arm antibody (antibody, human IgG1, kappa, L234A L235A, N297A, name in Kabat numbering)
heavy: B1 heavy with T19R, S55G
chain: B1 chain
light: B1 light
ratio of amounts bound (altered form / CE115HA000): 0.97

More lines, now with the values ahead:

ratio of amounts bound (altered form / CE115HA000): 0.9
B2: CE115HA000 S77T one-arm antibody (antibody, human IgG1, kappa, L234A L235A, N297A, name in Kabat numbering)
heavy: B1 heavy with T19R, S80T
chain: B1 chain
light: B1 light

ratio of amounts bound (altered form / CE115HA000): 1
B4: CE115HA000 V11L one-arm antibody (antibody, human IgG1, kappa, L234A L235A, N297A, name in Kabat numbering)
heavy: B1 heavy with V11L, T19R
chain: B1 chain
light: B1 light

ratio of amounts bound (altered form / CE115HA000): 0.22
B5: CE115HA000 V95S one-arm antibody (antibody, human IgG1, kappa, L234A L235A, N297A, name in Kabat numbering)
heavy: B1 heavy with T19R, V101S
chain: B1 chain
light: B1 light

ratio of amounts bound (altered form / CE115HA000): 1
B6: CE115HA000 S62P one-arm antibody (antibody, human IgG1, kappa, L234A L235A, N297A, name in Kabat numbering)
heavy: B1 heavy with T19R, S65P
chain: B1 chain
light: B1 light

ratio of amounts bound (altered form / CE115HA000): 1.05
B7: CE115HA000 S74A one-arm antibody (antibody, human IgG1, kappa, L234A L235A, N297A, name in Kabat numbering)
heavy: B1 heavy with T19R, S77A
chain: B1 chain
light: B1 light

ratio of amounts bound (altered form / CE115HA000): 0.61
B8: CE115HA000 T57I one-arm antibody (antibody, human IgG1, kappa, L234A L235A, N297A, name in Kabat numbering)
heavy: B1 heavy with T19R, T60I
chain: B1 chain
light: B1 light

ratio of amounts bound (altered form / CE115HA000): 0.44
B9: CE115HA000 V100cD one-arm antibody (antibody, human IgG1, kappa, L234A L235A, N297A, name in Kabat numbering)
heavy: B1 heavy with T19R, V109D
chain: B1 chain
light: B1 light

ratio of amounts bound (altered form / CE115HA000): 0.97
B10: CE115HA000 T57N one-arm antibody (antibody, human IgG1, kappa, L234A L235A, N297A, name in Kabat numbering)
heavy: B1 heavy with T19R, T60N
chain: B1 chain
light: B1 light

ratio of amounts bound (altered form / CE115HA000): 0.98
B16: CE115HA000 T57A one-arm antibody (antibody, human IgG1, kappa, L234A L235A, N297A, name in Kabat numbering)
heavy: B1 heavy with T19R, T60A
chain: B1 chain
light: B1 light

ratio of amounts bound (altered form / CE115HA000): 1.32
B17: CE115HA000 T57K one-arm antibody (antibody, human IgG1, kappa, L234A L235A, N297A, name in Kabat numbering)
heavy: B1 heavy with T19R, T60K
chain: B1 chain
light: B1 light

ratio of amounts bound (altered form / CE115HA000): 0.91
B18: CE115HA000 S74P one-arm antibody (antibody, human IgG1, kappa, L234A L235A, N297A, name in Kabat numbering)
heavy: B1 heavy with T19R, S77P
chain: B1 chain
light: B1 light

ratio of amounts bound (altered form / CE115HA000): 0.24
B19: CE115HA000 V95D one-arm antibody (antibody, human IgG1, kappa, L234A L235A, N297A, name in Kabat numbering)
heavy: B1 heavy with T19R, V101D
chain: B1 chain
light: B1 light

ratio of amounts bound (altered form / CE115HA000): 0.19
B20: CE115HA000 V95G one-arm antibody (antibody, human IgG1, kappa, L234A L235A, N297A, name in Kabat numbering)
heavy: B1 heavy with T19R, V101G
chain: B1 chain
light: B1 light

ratio of amounts bound (altered form / CE115HA000): 0.24
B26: CE115HA000 V95E one-arm antibody (antibody, human IgG1, kappa, L234A L235A, N297A, name in Kabat numbering)
heavy: B1 heavy with T19R, V101E
chain: B1 chain
light: B1 light

ratio of amounts bound (altered form / CE115HA000): 0.91
B27: CE115HA000 T28S one-arm antibody (antibody, human IgG1, kappa, L234A L235A, N297A, name in Kabat numbering)
heavy: B1 heavy with T19R, T28S
chain: B1 chain
light: B1 light

ratio of amounts bound (altered form / CE115HA000): 0.11
B28: CE115HA000 V95A one-arm antibody (antibody, human IgG1, kappa, L234A L235A, N297A, name in Kabat numbering)
heavy: B1 heavy with T19R, V101A
chain: B1 chain
light: B1 light

ratio of amounts bound (altered form / CE115HA000): 0.56
B31: CE115HA000 T28D one-arm antibody (antibody, human IgG1, kappa, L234A L235A, N297A, name in Kabat numbering)
heavy: B1 heavy with T19R, T28D
chain: B1 chain
light: B1 light

ratio of amounts bound (altered form / CE115HA000): 0.64
B32: CE115HA000 V95K one-arm antibody (antibody, human IgG1, kappa, L234A L235A, N297A, name in Kabat numbering)
heavy: B1 heavy with T19R, V101K
chain: B1 chain
light: B1 light
